Test results taken from patent publication US20220033501A1 (SHANGHAI PHARMAEXPLORER, published 2022).
Residue numbers refer to the chain shown, from its start.

T1: human TIM-3 extracellular domain protein with hFc tag (hTIM-3-hFc) (human, UniProt Q8TDQ0 22-200)
T1 construct: not shown: human IgG Fc fragment (hFc) of the pCpC vector
T1 sequence: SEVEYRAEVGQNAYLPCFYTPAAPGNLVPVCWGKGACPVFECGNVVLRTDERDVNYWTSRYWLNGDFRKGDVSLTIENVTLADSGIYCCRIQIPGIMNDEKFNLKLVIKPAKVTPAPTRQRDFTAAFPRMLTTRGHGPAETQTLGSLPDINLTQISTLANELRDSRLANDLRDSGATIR

T2: human TIM-3, full length, on cells (human, UniProt Q8TDQ0 22-301)
T2 construct: Also used here for native TIM-3 on PBMC in the functional rows; also called CHOK1-hTIM-3; HEK293-h TIM-3
T2 sequence: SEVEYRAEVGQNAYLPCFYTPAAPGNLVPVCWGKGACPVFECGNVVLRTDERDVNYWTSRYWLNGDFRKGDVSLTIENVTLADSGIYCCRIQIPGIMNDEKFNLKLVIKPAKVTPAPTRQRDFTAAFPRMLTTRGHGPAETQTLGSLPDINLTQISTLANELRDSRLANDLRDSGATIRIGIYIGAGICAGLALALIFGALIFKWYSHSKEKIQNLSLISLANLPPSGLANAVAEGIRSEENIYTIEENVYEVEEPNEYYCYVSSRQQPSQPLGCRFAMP

B1: 134H3G6 fully human TIM-3 antibody (human IgG4, kappa) (antibody, V domains shown)
VH: EVQLVESGGGLVQPGGSLRLSCAASGFTFSNSWMTWVRQAPGKGLEWVANIKQAGTEKYYVDSVKGRFTISRDNAKNSLYLQMNSLRAEDTAVYYCNSGSNYFDYWGQGTLVTVSS
VL: EIVMTQSPATLSVSPGERATLSCRARQNFYSNLAWYQQKPGQAPRLLIYGASTRATGIPARFSGSGSGTEFTLTISSLQSEDFAVYYCQQYNNWPLTFGGGTKVEIK
B2: 18D2H2 fully human TIM-3 antibody (human IgG4, kappa) (antibody, V domains shown)
VH: EVQLVESGGDLVQPGGSLRLSCAASGFTFSTYWMTWVRQAPGRGLEWVANIKQDGSAKYYVDSVKGRFTLSRDDAKNSLYLQMNSLRAEDTAVYYCARGSNWFDYWGQGTLVTVSS
VL: B1 VL with I2T, R26N, F29V, G50D, I58F
B3: 18D2H2 (TIM-3 antibody purified from hybridoma, chimeric antibody of Example 2) (antibody, V domains shown)
VH: B2 VH
VL: B1 VL with I2T, R26N, F29V, G50D, I58F
notes: From hybridoma of Harbour H2L2 transgenic mice: human variable regions, rat constant regions
B4: 134H3G6 (TIM-3 antibody purified from hybridoma, chimeric antibody of Example 2) (antibody, V domains shown)
VH: B1 VH
VL: B1 VL
notes: as for B3
B5: 57F4E5 (TIM-3 antibody purified from hybridoma, chimeric antibody of Example 2) (antibody, V domains shown)
VH: EVQLVESGGGLVQPGGSLRLSCAASGFTFSSYWMSWVRQAPGKGLEWVANIKQDGSEKYYVDSVKGRFTISRDSAKNSLYLQMNSLRAEDTAMYFCARDSNFFDYWGQGTLVTVSS
VL: B1 VL with I2T, R26S, N28S, F29V, Y30S, Q38R, G50F, A51S
notes: as for B3
B6: 215A8F2 fully human TIM-3 antibody (human IgG4, kappa) (antibody, V domains shown)
VH: QVQLQQWGAGLLKPSETLSLTCTVYGGSFSGYYWNWIRQPPGKGLEWLGEINHSGSTNYNPSLKRRVTISVDTSKNQFSLKLSSVTAADTAVYYCARVYYYGPFDFWGQGTLVTVSS
VL: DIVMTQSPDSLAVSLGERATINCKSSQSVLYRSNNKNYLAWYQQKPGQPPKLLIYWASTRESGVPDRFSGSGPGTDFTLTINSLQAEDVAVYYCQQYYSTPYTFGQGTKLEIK
B7: 215A8F2 (TIM-3 antibody purified from hybridoma, chimeric antibody of Example 2) (antibody, V domains shown)
VH: B6 VH
VL: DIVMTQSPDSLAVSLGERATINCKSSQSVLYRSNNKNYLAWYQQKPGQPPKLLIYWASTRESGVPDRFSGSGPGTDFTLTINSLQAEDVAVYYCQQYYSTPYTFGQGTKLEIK
notes: as for B3
B8: 7A4F10 fully human TIM-3 antibody (human IgG4, kappa) (antibody, V domains shown)
VH: EVQLLESGGGLVQPGGSLRLSCAASGFTFRTHLISWVRQAPGKGLEWVAAITGSGGSTYYADSVKGRFIISRDNSKNTLFLQMNSLRAEDTAVYYCAKDGGSGSYDDFWGQGTLVTVSS
VL: ETVLTQSPVTLSLSPGERATLSCRASQSVGSYLAWYQQKPGQAPRLLIYDASNRATGIPARFSGSGSGTDFTLTISSLEPEDFAVYYCQQRSNWPPTFGQGTKVEIK
B9: 7A4F10 (TIM-3 antibody purified from hybridoma, chimeric antibody of Example 2) (antibody, V domains shown)
VH: B8 VH
VL: B8 VL
notes: as for B3

Legend:
[1] = target: T1, human TIM-3 extracellular domain …; assay: FACS, blocking of hTIM-3-hFc binding to phosphatidylserine on apoptotic Jurkat cells, 0 nM antibody
Experimental: (§1) Jurkat cells were treated with 1 μM staurosporine at 37° C. for 2 hours to induce apoptosis. The presence of phosphatidylserine was detected by Annexin V-FITC cell apoptosis detection kit. […] The cells were washed 1-2 times with PBS buffer, and after cell counting, the cells were diluted to 1-2×10⁶ cells per milliliter with binding buffer, and added to a 96-well FACS reaction plate at 100 microliters per well. The antibody sample to be tested and 2 μg/ml hTIM-3-hFc protein were prepared with binding buffer, and mixed equally in volume. The mixture was incubated at room temperature for 30 minutes, then the FACS reaction plate incubated with apoptotic cells was centrifuged to discard the supernatant, and the above mixture was added to the apoptotic cells at 100 microliters per well and incubated at room temperature for 1 hour. The plate was washed twice with the binding buffer by centrifugation, added with 100 microliters of fluorescent (Alexa 488)-labeled secondary antibodies per well, and incubated for half an hour. The plate was washed 2-3 times with the binding buffer by centrifugation, added with 100 microliters of PBS per well to suspend cells, and detected using FACS (FACS Calibur, BD) and the results were analyzed. The results are shown in Table 15 and FIG. 15, wherein the IgG control is human IgG, and the data in the table is the inhibition rate (%).

[2] = target: T1, human TIM-3 extracellular domain …; assay: FACS, blocking of hTIM-3-hFc binding to phosphatidylserine on apoptotic Jurkat cells, 2.469 nM antibody
Experimental: as §1

[3] = target: T1, human TIM-3 extracellular domain …; assay: FACS, blocking of hTIM-3-hFc binding to phosphatidylserine on apoptotic Jurkat cells, 7.407 nM antibody
Experimental: as §1

[4] = target: T2, human TIM-3, full length, on cells; assay: FACS, CHOK1-hTIM-3 cells; antibody 8 nM
Excerpt: (§2) The pIRES plasmid containing the full-length nucleotide sequence encoding human TIM-3 as described in Example 1 was transfected into CHOK1 cell line to obtain a CHOK1 stable cell line containing human TIM-3 (herein referred to as CHOK1-hTIM-3 stable cell line). The pIRES plasmid containing the full-length gene of monkey TIM-3 was transfected into CHOK1 cell line to construct a CHOK1 stable cell line containing monkey TIM-3 (herein referred to as CHOK1-cTIM-3 stable cell line). The CHOK1-hTIM-3 stable cell line and CHOK1-cTIM-3 stable cell line were expanded to a confluence of 90% in a T-75 cell culture flask. The medium was aspirated, and the cells were washed with HBSS (Hanks' Balanced Salt Solution) 1-2 times, and then treated with an enzyme-free cell dissociation solution (Versene solution: Life technology) and the cells were collected. The cells were washed with HBSS buffer for 1-2 times. After counted, the cells were diluted with HBSS to 1-2×10⁶ cells per ml, added with 1% goat serum blocking solution, incubated on ice for 20-30 minutes, and then washed with HBSS by centrifugation 2 times. The collected cells were suspended in the FACS buffer (HBSS+1% BSA) to 2×10⁶ cells/ml, added as 100 microliters per well to a 96-well FACS reaction plate, added with 100 microliters per well of the antibody sample to be tested, incubated on ice for 1-2 hours. The plate was washed twice with the FACS buffer by centrifugation, added with 100 microliters of fluorescent (Alexa 488)-labeled secondary antibodies per well, and incubated on ice for 0.5-1.0 hours. The plate was washed 2-3 times with FACS buffer by centrifugation, added with 100 μl fixative solution (4% Paraformaldehyde) per well to suspend the cells. 5-10 minutes later, it was washed 1-2 times with FACS buffer by centrifugation. The cells were suspended with 100 microliters of FACS buffer, FACS (FACSCalibur, BD) was used for detection and the results were analyzed. The results are shown in FIGS. 7 and 8, Tables 7 and 8, wherein the IgG control is rat IgG, and the data in the table are the average fluorescence intensity values of the cell populations measured by MFI.

[5] = target: T2, human TIM-3, full length, on cells; assay: FACS, CHOK1-hTIM-3 cells; antibody 40 nM
Excerpt: as §2

[6] = target: T2, human TIM-3, full length, on cells; assay: FACS, CHOK1-hTIM-3 cells; antibody 1.6 nM
Excerpt: as §2

[7] = target: T2, human TIM-3, full length, on cells; assay: FACS, CHOK1-hTIM-3 cells; antibody 200 nM
Excerpt: as §2

[8] = target: T2, human TIM-3, full length, on cells; assay: FACS, CHOK1-hTIM-3 cells; antibody 0.32 nM
Excerpt: as §2

[9] = target: T2, human TIM-3, full length, on cells; assay: FACS, CHOK1-hTIM-3 cells; antibody 0.013 nM
Excerpt: as §2

[10] = target: T2, human TIM-3, full length, on cells; assay: FACS, CHOK1-hTIM-3 cells; antibody 0.064 nM
Excerpt: as §2

[11] = target: T2, human TIM-3, full length, on cells; assay: FACS, CHOK1-hTIM-3 cells; antibody 0 nM (blank)
Excerpt: as §2

| Binder | Inhibition ratio (%) [1] [%] | Inhibition ratio (%) [2] [%] | Inhibition ratio (%) [3] [%] | Mean fluorescence intensity [4] | Mean fluorescence intensity [5] | Mean fluorescence intensity [6] | Mean fluorescence intensity [7] | Mean fluorescence intensity [8] | Mean fluorescence intensity [9] | Mean fluorescence intensity [10] | Mean fluorescence intensity [11] |
| --- | --- | --- | --- | --- | --- | --- | --- | --- | --- | --- | --- |
| B1 | 5.5 | 10.9 | 60.1 | – | – | – | – | – | – | – | – |
| B2 | 1.4 | 27.4 | 64.9 | – | – | – | – | – | – | – | – |
| B3 | – | – | – | 107 | 185 | 40.2 | 212 | 15.6 | 4.2 | 6.6 | 2.9 |
| B4 | – | – | – | 139 | 230 | 50 | 261 | 17.7 | 4.7 | 8.2 | 3 |
| B5 | – | – | – | 478 | 485 | 390 | 485 | 177 | 21.2 | 58.1 | 2.9 |
| B6 | 1.6 | 5.8 | 59.5 | – | – | – | – | – | – | – | – |
| B7 | – | – | – | 608 | 610 | 214 | 613 | 55.6 | 8.6 | 18.7 | 3 |
| B8 | 0.5 | 23.7 | 62.4 | – | – | – | – | – | – | – | – |
| B9 | – | – | – | 56.2 | 144 | 15.4 | 145 | 6.8 | 3.3 | 4.3 | 2.9 |
